Like-named read-outs stand apart in the source and are kept apart here.
T1: human LIV-1 (human, UniProt Q13433 29-755)
T1 construct: whole, on cells; also called H-LIV1
T1 sequence (looked up): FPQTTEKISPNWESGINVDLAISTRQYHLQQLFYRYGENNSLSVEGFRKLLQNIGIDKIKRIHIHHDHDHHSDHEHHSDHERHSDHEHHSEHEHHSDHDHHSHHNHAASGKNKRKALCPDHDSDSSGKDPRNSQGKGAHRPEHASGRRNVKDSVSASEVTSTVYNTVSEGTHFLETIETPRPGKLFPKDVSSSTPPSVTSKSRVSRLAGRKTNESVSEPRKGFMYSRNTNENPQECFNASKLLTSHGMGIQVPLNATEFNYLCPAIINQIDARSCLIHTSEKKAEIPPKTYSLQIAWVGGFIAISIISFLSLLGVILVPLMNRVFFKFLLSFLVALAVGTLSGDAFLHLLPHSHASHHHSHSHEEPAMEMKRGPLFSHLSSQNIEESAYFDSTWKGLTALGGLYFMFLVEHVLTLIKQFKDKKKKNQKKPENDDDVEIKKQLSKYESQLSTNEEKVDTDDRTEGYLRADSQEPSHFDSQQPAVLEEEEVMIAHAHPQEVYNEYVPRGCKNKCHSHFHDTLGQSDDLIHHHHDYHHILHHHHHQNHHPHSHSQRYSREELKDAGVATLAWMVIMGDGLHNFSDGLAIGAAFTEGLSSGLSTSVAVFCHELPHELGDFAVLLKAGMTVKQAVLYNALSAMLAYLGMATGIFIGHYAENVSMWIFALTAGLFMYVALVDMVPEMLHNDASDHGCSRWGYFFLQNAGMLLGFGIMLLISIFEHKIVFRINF


Assays:
[1] = molecular target: T2, cynomolgus LIV-1 (cynomolgus, UniProt A0A2K5WH46 30-741); test: FACS, HEK293/Cyno_LIV-1 cells
Protocol: (§1) In this example, cell based binding of chimeric Abs on human and cyno LIV-1 over-expressing HEK 293 cells were assessed using flow cytometry.
(§2) Briefly, cells were incubated with chimeric Abs (from 100 nM, 5 folds dilution, 8 points). After incubation at 4° C. for 60 minutes, the cells were washed with 2% FBS/PBS buffer twice, then stained with fluorescent conjugated secondary antibody at 4° C. for 30 minutes. After that the cells were washed twice and resuspended in 80 μL of 2% FBS/PBS buffer. Fluorescent signal of binding was detected using Agilent. The EC50 was calculated using the GraphPad Software (LaJolla, CA).

[2] = molecular target: T1, human LIV-1; test: FACS, HEK293/H_LIV-1 cells
Protocol: as §1, §2

[3] = molecular target: T1, human LIV-1; test: FACS, HEK293/H_LIV-1 cells; remark: listed apart in the source
Protocol: In this example, cell based binding of humanized antibodies (hu Abs) on human LIV-1-expressing cells were assessed using flow cytometry.
Cell based binding of hu-Abs on human LIV-1 expressing cells were assessed using flow cytometry. Briefly, the HEK293/H_LIV-1 cells were incubated with hu-Abs (from 100 nM, 6 folds dilution, 8 points). After incubation at 4° C. for 60 minutes, the cells were washed with FACS buffer twice, then stained with fluorescent conjugated secondary antibody at 4° C. for 30 minutes. After that the cells were washed twice and analyzed by flow cytometry.

[4] = molecular target: T2, cynomolgus LIV-1; test: FACS, HEK293/Cyno_LIV-1 cells; remark: listed apart in the source
Target sequence in this assay (A0A2K5WH46 entry or part of it): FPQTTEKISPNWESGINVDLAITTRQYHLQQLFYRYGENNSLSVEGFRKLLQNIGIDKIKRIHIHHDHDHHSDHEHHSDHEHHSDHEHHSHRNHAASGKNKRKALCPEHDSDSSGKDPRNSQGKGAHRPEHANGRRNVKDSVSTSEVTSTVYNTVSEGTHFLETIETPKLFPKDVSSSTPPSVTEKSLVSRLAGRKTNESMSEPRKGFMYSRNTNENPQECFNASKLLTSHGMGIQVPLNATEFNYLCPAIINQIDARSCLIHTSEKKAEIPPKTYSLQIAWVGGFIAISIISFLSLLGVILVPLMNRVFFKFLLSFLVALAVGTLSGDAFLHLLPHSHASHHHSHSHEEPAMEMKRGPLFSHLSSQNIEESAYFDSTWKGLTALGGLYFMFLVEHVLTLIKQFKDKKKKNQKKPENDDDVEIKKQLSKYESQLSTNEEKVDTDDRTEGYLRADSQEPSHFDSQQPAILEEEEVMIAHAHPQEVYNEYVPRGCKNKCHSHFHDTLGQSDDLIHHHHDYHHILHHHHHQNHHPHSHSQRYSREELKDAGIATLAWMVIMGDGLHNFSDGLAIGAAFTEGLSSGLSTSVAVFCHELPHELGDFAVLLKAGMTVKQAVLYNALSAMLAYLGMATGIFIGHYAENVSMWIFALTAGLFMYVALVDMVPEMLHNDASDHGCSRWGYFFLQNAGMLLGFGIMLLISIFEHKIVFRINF

Binder | EC50 [1] [nM] | Top (MFI) [1] [MFI] | EC50 [2] [nM] | Top (MFI) [2] [MFI] | EC50 [3] [nM] | Top (MFI) [3] [MFI] | EC50 [4] [nM] | Top (MFI) [4] [MFI]
79F5G5 (antibody, V domains shown, Tested as chimeric antibody) VH: EVQLQQSGAELVRSGASVKLSCTASGFNIKDYYMHWVKQRPEQGLEWIGWIDPENGDTEYAPKFQGKATLTADTSSNTAYLQLSSLTFEDTAVYYCPHGGGLRVFDYWGQGTSLTVSS VL: DVLMTQIPLSLSVSLGDQASISCRSSQSIVHSNGNTYLEWYLQKPGQSPKLLIYKVSNRFSGVPDRFSGSGSGTDFTLKISRVEAEDLGVYYCFQGSHVPWTFGGGTKLEIK | 1.85 | 7020 | 9.45 | 17500 |  |  |  | 
94C4B9 (antibody, V domains shown, Tested as chimeric antibody) VH: EVQLQQSGTVLARPGASVKMSCKASGYTFINYWMHWVKQRPGQGLEWIGAFYPGNSDTSYNQKFKDKAKLTAVTSTSTAYMEFSSLTNEDSAVYYCTRDFTAVPYFDYWGQGTTLTVSS VL: DILMTQTPLSLPVSLGDQASISCRSSQSIVHSNGNTYLEWYLQKPGQSPKLLIYKVSNRFSGVPDRFSGSGSGTDFTLKISRVEAEDLGVYYCFQGSYVPLTFGVGTKLELK | 0.15 | 7860 | 0.22 | 11600 |  |  |  | 
90H4F8 (antibody, V domains shown, Tested as chimeric antibody) VH: QVQLQQSGPELVKPGASVRISCKASGYTFTSYHMHWVKQRPGQGLEWIGWIYPGNVKNQSNEKFKGKATLTADKSSSTAYMHLSSLTSEDSAVYFCARSDITRAFFAYWGQGTLVTVSA VL: DVLMTQTPLSLPVSLGDQASISCRSSQSIVHSNGNTYLEWYLQKPGQSPKLLIYKVSNRFSGVPDRFSGSGSGTDFTLKISRVEAEDLGVYYCFQGSHGPYTFGGGTKLEIK | 0.43 | 6880 | 1.08 | 12200 |  |  |  | 
5D6B10.Z5 (antibody, V domains shown) VH: QVQLVESGGGVVQPGRSLRLSCTVSGFSLTTYGIHWVRQSPGKGLEWLGVIWTGGTTDYNAAFISRLTISKDNSKSTLYFQMNSLRAEDTAVYYCARGPSSYWGQGTLVTVSS VL: EIVMTQSPATLSVSPGERATVSCKASQNVDTNVVWYQQKPGQSPRALIHSASYRYSGVPDRFSGSGSGTDFTLTISSLQSEDFAVYFCQQYNNYPWTFGQGTKVEIK |  |  |  |  | 0.17 | 43400 | 1.72 | 12400
5D6B10.Z1 (antibody, V domains shown) VH: QVQLVESGGGVVQPGRSLRLSCAVSGFSLTTYGIHWVRQAPGKGLEWLAVIWTGGTTDYNAAFISRFTISKDNSKSTLYLQMNSLRAEDTAVYYCARGPSSYWGQGTLVTVSS VL: EIVMTQSPATLSVSPGERATLSCKASQNVDTNVVWYQQKPGQSPRALIYSASYRYSGVPARFSGSGSGTEFTLTISSLQSEDFAVYFCQQYNNYPWTFGQGTKVEIK |  |  |  |  | 0.16 | 49800 | 0.13 | 19600
5D6B10.Z6 (antibody, V domains shown) VH: QVQLVESGGGVVQPGRSLRLSCTVSGFSLTTYGIHWVRQSPGKGLEWLGVIWTGGTTDYNAAFISRLTISKDNSKSTLYFQMNSLRAEDTAVYYCARGPSSYWGQGTLVTVSS VL: DIVMTQSPATLSVSPGERVTVSCKASQNVDTNVVWYQQKPGQSPRALIHSASYRYSGVPDRFSGSGSGTDFTLTISSVQSEDFAVYFCQQYNNYPWTFGGGTKLEIK |  |  |  |  | 0.24 | 52700 | 0.16 | 16700
5D6B10.Z4 (antibody, V domains shown) VH: QVQLVESGGGVVQPGRSLRLSCTVSGFSLTTYGIHWVRQSPGKGLEWLGVIWTGGTTDYNAAFISRLTISKDNSKSTLYFQMNSLRAEDTAVYYCARGPSSYWGQGTLVTVSS VL: EIVMTQSPATLSVSPGERATLSCKASQNVDTNVVWYQQKPGQSPRALIYSASYRYSGVPARFSGSGSGTEFTLTISSLQSEDFAVYFCQQYNNYPWTFGQGTKVEIK |  |  |  |  | 0.28 | 53000 | 0.2 | 19800
82C7C7 (antibody, V domains shown, Tested as chimeric antibody) VH: EVQLQQSGAELVKPGASIKLSCTPSGFNIKDTFIHWVKQRPEQGLEWIGRIDPANGNTRYDPKFQGKATITADTSSNTAYLQLISLTSEDTAVYYCAGGSISTVVPDYWGQGTTLTVSS VL: DVVVTQTPLSLPVSLGDQASISCRSSQSLVHNNGNTYLHWYLQKPGQSPKLLIYKVSNRFSGVPDRFSGSGSGTDFTLKISRVEAEDLGVYFCSQSTHVPYTFGGGTKLEIK | 0.5 | 7130 | 0.61 | 12300 |  |  |  | 

More lines, now with the values ahead:

EC50 [1] [nM] | Top (MFI) [1] [MFI] | EC50 [2] [nM] | Top (MFI) [2] [MFI] | EC50 [3] [nM] | Top (MFI) [3] [MFI] | EC50 [4] [nM] | Top (MFI) [4] [MFI] | Binder
 |  |  |  | 0.58 | 15600 | 0.25 | 8070 | 124H4D11.p2.z5 (antibody, V domains shown) VH: QVQLVQSGAEVVKPGASVKVSCKASGFNIKDYYMHWVRQAPGQGLEWIGWIDPENDDTEYDPKFQGRVTMTADTSTSTVYMELSSLRSEDTAVYYCAARYYAFDYWGQGTMVTVSS VL: DVLMTQSPLSLPVTLGQPASISCRSSQSIVHSNANTYLEWYLQRPGQSPKLLIYKVSNRFSGVPDRFSGSGSGTEFTLKISRVEAEDLGVYYCFQGSQVPPTFGGGTKLEIK
0.34 | 8240 | 1.04 | 12600 |  |  |  |  | 99B3E8 (antibody, V domains shown, Tested as chimeric antibody) VH: EVQLQQSGTVLARPGTSVKMSCKASGYTFINYWMHWVRQRPGQGLEWIGAFYPGNSDTSYNQNFKDKAKLTAVTSTSTAYMEFSSLTNEDSAVYYCTRDFTAVPFFDYWGQGTTLTVSS VL: DVLMTQTPLSLPVSLGDQASISCRSSQSIVHSNGNTYLEWYLQKPGQSPKLLIYKVSNRFSGVPDRFSGSGSGTDFTLKISRVEAEDLGVYYCFQGSYVPLTFGVGTKLELK
 |  |  |  |  | 16800 | 0.5 | 7670 | 124H4D11.p2.z14 (antibody, V domains shown) VH: QVPLVQSGAEVVKPGASVKLSCKASGFNIKDYYMHWVKQAPGQGLEWIGWIDPENDDTEYDPKFQGRATMTADTSTSTAYLELSSLRSEDTAVYYCNARYYAFDYWGQGTTVTVSS VL: DVLMTQSPLSLPVTLGQPASISCRSSQSIVHSNANTYLEWYLQRPGQSPRLLIYKVSNRFSGVPDRFSGSGSGTDFTLKISRVEAEDVGVYYCFQGSQVPPTFGQGTKLEIK
 |  |  |  |  | 16800 | 5.37 | 6910 | 124H4D11.p2.z15 (antibody, V domains shown) VH: QVPLVQSGAEVVKPGASVKLSCKASGFNIKDYYMHWVKQAPGQGLEWIGWIDPENDDTEYDPKFQGRATMTADTSTSTAYLELSSLRSEDTAVYYCNARYYAFDYWGQGTTVTVSS VL: DVLMTQSPLSLPVTLGQPASISCRSSQSIVHSNANTYLEWYLQRPGQSPKLLIYKVSNRFSGVPDRFSGSGSGTEFTLKISRVEAEDLGVYYCFQGSQVPPTFGGGTKLEIK
 |  |  |  | 0.33 | 51200 | 0.23 | 17200 | 5D6B10.Z3 (antibody, V domains shown) VH: QVQLVESGGGVVQPGRSLRLSCAVSGFSLTTYGIHWVRQAPGKGLEWLAVIWTGGTTDYNAAFISRFTISKDNSKSTLYLQMNSLRAEDTAVYYCARGPSSYWGQGTLVTVSS VL: DIVMTQSPATLSVSPGERVTVSCKASQNVDTNVVWYQQKPGQSPRALIHSASYRYSGVPDRFSGSGSGTDFTLTISSVQSEDFAVYFCQQYNNYPWTFGGGTKLEIK
 |  |  |  | 0.18 | 46700 | 4.56 | 14900 | 5D6B10.Z2 (antibody, V domains shown) VH: QVQLVESGGGVVQPGRSLRLSCAVSGFSLTTYGIHWVRQAPGKGLEWLAVIWTGGTTDYNAAFISRFTISKDNSKSTLYLQMNSLRAEDTAVYYCARGPSSYWGQGTLVTVSS VL: EIVMTQSPATLSVSPGERATVSCKASQNVDTNVVWYQQKPGQSPRALIHSASYRYSGVPDRFSGSGSGTDFTLTISSLQSEDFAVYFCQQYNNYPWTFGQGTKVEIK
0.15 | 41300 | 0.34 | 66200 |  |  |  |  | 92E4E10 (antibody, V domains shown, Tested as chimeric antibody) VH: EVQLQQSGTVLARPGASVKISCKASGYRFTSYWMHWVKQRPGQGLEWIGAIYPGNSDTTYNQKFKGKAKLTAVTSASTAYMDLSSLTNEDSAVYYCTSLLLRSPFDYWGQGTTLTVSS VL: not shown
